# Source: patent US20230167164A1 (IMMUNOWAKE, published 2023)
# How the values were obtained:
# [1] = molecular target: human IL-12 receptor complex (human, UniProt P42701 24-662; Q99665 24-862); assay: cell-based or functional assay
# [2] = molecular target: T1, CD8 on CD8+ T cells (human, UniProt P01732 22-235); assay: FACS on CD8+ T cells
# T1 construct: whole, on cells
# T1 sequence (P01732 22-235): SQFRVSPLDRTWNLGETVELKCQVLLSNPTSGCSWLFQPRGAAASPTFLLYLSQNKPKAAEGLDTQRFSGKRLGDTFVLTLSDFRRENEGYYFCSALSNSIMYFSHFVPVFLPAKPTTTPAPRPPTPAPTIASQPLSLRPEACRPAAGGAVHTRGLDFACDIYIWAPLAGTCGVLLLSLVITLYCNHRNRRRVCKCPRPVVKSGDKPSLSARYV
# human IL-12 receptor complex, sequence (Q99665 24-862, chain 2 of 2, other chains not shown): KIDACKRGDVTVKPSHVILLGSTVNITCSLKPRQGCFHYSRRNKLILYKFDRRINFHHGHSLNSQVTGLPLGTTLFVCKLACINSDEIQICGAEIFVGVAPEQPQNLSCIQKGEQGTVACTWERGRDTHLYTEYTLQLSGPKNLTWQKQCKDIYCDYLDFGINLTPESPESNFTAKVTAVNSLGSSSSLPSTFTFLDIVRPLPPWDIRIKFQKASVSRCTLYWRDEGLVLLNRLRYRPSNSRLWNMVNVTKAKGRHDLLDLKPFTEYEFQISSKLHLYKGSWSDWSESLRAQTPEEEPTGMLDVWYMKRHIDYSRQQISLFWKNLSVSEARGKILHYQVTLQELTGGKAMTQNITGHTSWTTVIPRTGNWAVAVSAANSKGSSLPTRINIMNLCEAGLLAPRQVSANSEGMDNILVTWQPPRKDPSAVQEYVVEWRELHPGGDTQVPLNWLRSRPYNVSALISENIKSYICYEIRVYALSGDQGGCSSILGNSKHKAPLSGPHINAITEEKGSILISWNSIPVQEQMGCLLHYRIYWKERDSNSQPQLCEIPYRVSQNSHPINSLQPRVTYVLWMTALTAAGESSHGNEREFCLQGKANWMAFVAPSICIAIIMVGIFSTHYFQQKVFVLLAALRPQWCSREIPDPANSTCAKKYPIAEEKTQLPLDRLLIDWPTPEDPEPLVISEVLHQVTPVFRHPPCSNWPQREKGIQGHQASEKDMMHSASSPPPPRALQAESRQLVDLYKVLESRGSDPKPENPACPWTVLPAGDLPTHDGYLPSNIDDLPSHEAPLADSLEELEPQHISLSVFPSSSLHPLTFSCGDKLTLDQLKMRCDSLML
"IFN-γ release, % of rIL-12, activated CD8+ T cells [1] [%]",binding result [2],Binder
1.1,no binding,Fab-IL-12(E59A)-Fc-CD4 Ab (other) heavy 1: QVQLQQSGPEVVKPGASVKMSCKASGYTFTSYVIHWVRQKPGQGLDWIGYINPYNDGTDYDEKFKGKATLTSDTSTSTAYMELSSLRSEDTAVYYCAREKDNYATGAWFAYWGQGTLVTVSSASTKGPSVFPLAPSSKSTSGGTAALGCLVKDYFPEPVTVSWNSGALTSGVHTFPAVLQSSGLYSLSSVVTVPSSSLGTQTYICNVNHKPSNTKVDKKVEPKSCDKPGSGIWELKKDVYVVELDWYPDAPGEMVVLTCDTPEEDGITWTLDQSSEVLGSGKTLTIQVKAFGDAGQYTCHKGGEVLSHSLLLLHKKEDGIWSTDILKDQKEPKNKTFLRCEAKNYSGRFTCWWLTTISTDLTFSVKSSRGSSDPQGVTCGAATLSAERVRGDNKEYEYSVECQEDSACPAAEESLPIEVMVDAVHKLKYENYTSSFFIRDIIKPDPPKNLQLKPLKNSRQVEVSWEYPDTWSTPHSYFSLTFCVQVQGKSKREKKDRVFTDKTSATVICRKNASISVRAQDRYYSSSWSEWASVPCSGGGGSGGGGSGGGGSGGGGSGRNLPVATPDPGMFPCLHHSQNLLRAVSNMLQKARQTLEFYPCTSEEIDHEDITKDKTSTVEACLPLELTKNESCLNSRETSFITNGSCLASRKTSFMMALCLSSIYEDLKMYQVEFKTMNAKLLMDPKRQIFLDQNMLAVIDELMQALNFNSETVPQKSSLEEPDFYKTKIKLCILLHAFRIRAVTIDRVMSYLNASDKTHTCPPCPAPEDEGGPSVFLFPPKPKDTLMISRTPEVTCVVVDVSHEDPEVKFNWYVDGVEVHNAKTKPREEQYNSTYRVVSVLTVLHQDWLNGKEYKCKVSNKALPAPIEKTISKAKGQPREPQVYVYPPSREEMTKNQVSLTCLVKGFYPSDIAVEWESNGQPENNYKTTPPVLDEDGSFALVSKLTVDKSRWQQGNVFSCSVMHEALHNHYTQKSLSLSPGK heavy 2: QVQLQQSGPEVVKPGASVKMSCKASGYTFTSYVIHWVRQKPGQGLDWIGYINPYNDGTDYDEKFKGKATLTSDTSTSTAYMELSSLRSEDTAVYYCAREKDNYATGAWFAYWGQGTLVTVSSASTKGPSVFPLAPSSKSTSGGTAALGCLVKDYFPEPVTVSWNSGALTSGVHTFPAVLQSSGLYSLSSVVTVPSSSLGTQTYICNVNHKPSNTKVDKKVEPKSCDKTHTCPPCPAPEKKGGPSVFLFPPKPKDTLMISRTPEVTCVVVDVSHEDPEVKFNWYVDGVEVHNAKTKPREEQYNSTYRVVSVLTVLHQDWLNGKEYKCKVSNKALPAPIEKTISKAKGQPREPQVYVLPPSREEMTKNQVSLLCLVKGFYPSDIAVEWESNGQPENRYMTWPPVLDSDGSFFLYSKLTVDKSRWQQGNVFSCSVMHEALHNHYTQKSLSLSPGK light: not shown
0,no binding,Fab-IL-12(E59A/F60A)-Fc-CD4 Ab (other) heavy 1: QVQLQQSGPEVVKPGASVKMSCKASGYTFTSYVIHWVRQKPGQGLDWIGYINPYNDGTDYDEKFKGKATLTSDTSTSTAYMELSSLRSEDTAVYYCAREKDNYATGAWFAYWGQGTLVTVSSASTKGPSVFPLAPSSKSTSGGTAALGCLVKDYFPEPVTVSWNSGALTSGVHTFPAVLQSSGLYSLSSVVTVPSSSLGTQTYICNVNHKPSNTKVDKKVEPKSCDKPGSGIWELKKDVYVVELDWYPDAPGEMVVLTCDTPEEDGITWTLDQSSEVLGSGKTLTIQVKAAGDAGQYTCHKGGEVLSHSLLLLHKKEDGIWSTDILKDQKEPKNKTFLRCEAKNYSGRFTCWWLTTISTDLTFSVKSSRGSSDPQGVTCGAATLSAERVRGDNKEYEYSVECQEDSACPAAEESLPIEVMVDAVHKLKYENYTSSFFIRDIIKPDPPKNLQLKPLKNSRQVEVSWEYPDTWSTPHSYFSLTFCVQVQGKSKREKKDRVFTDKTSATVICRKNASISVRAQDRYYSSSWSEWASVPCSGGGGSGGGGSGGGGSGGGGSGRNLPVATPDPGMFPCLHHSQNLLRAVSNMLQKARQTLEFYPCTSEEIDHEDITKDKTSTVEACLPLELTKNESCLNSRETSFITNGSCLASRKTSFMMALCLSSIYEDLKMYQVEFKTMNAKLLMDPKRQIFLDQNMLAVIDELMQALNFNSETVPQKSSLEEPDFYKTKIKLCILLHAFRIRAVTIDRVMSYLNASDKTHTCPPCPAPEDEGGPSVFLFPPKPKDTLMISRTPEVTCVVVDVSHEDPEVKFNWYVDGVEVHNAKTKPREEQYNSTYRVVSVLTVLHQDWLNGKEYKCKVSNKALPAPIEKTISKAKGQPREPQVYVYPPSREEMTKNQVSLTCLVKGFYPSDIAVEWESNGQPENNYKTTPPVLDEDGSFALVSKLTVDKSRWQQGNVFSCSVMHEALHNHYTQKSLSLSPGK heavy 2: QVQLQQSGPEVVKPGASVKMSCKASGYTFTSYVIHWVRQKPGQGLDWIGYINPYNDGTDYDEKFKGKATLTSDTSTSTAYMELSSLRSEDTAVYYCAREKDNYATGAWFAYWGQGTLVTVSSASTKGPSVFPLAPSSKSTSGGTAALGCLVKDYFPEPVTVSWNSGALTSGVHTFPAVLQSSGLYSLSSVVTVPSSSLGTQTYICNVNHKPSNTKVDKKVEPKSCDKTHTCPPCPAPEKKGGPSVFLFPPKPKDTLMISRTPEVTCVVVDVSHEDPEVKFNWYVDGVEVHNAKTKPREEQYNSTYRVVSVLTVLHQDWLNGKEYKCKVSNKALPAPIEKTISKAKGQPREPQVYVLPPSREEMTKNQVSLLCLVKGFYPSDIAVEWESNGQPENRYMTWPPVLDSDGSFFLYSKLTVDKSRWQQGNVFSCSVMHEALHNHYTQKSLSLSPGK light: not shown
1.5,no binding,Fab-IL-12(F60A)-Fc-CD4 Ab (other) heavy 1: QVQLQQSGPEVVKPGASVKMSCKASGYTFTSYVIHWVRQKPGQGLDWIGYINPYNDGTDYDEKFKGKATLTSDTSTSTAYMELSSLRSEDTAVYYCAREKDNYATGAWFAYWGQGTLVTVSSASTKGPSVFPLAPSSKSTSGGTAALGCLVKDYFPEPVTVSWNSGALTSGVHTFPAVLQSSGLYSLSSVVTVPSSSLGTQTYICNVNHKPSNTKVDKKVEPKSCDKPGSGIWELKKDVYVVELDWYPDAPGEMVVLTCDTPEEDGITWTLDQSSEVLGSGKTLTIQVKEAGDAGQYTCHKGGEVLSHSLLLLHKKEDGIWSTDILKDQKEPKNKTFLRCEAKNYSGRFTCWWLTTISTDLTFSVKSSRGSSDPQGVTCGAATLSAERVRGDNKEYEYSVECQEDSACPAAEESLPIEVMVDAVHKLKYENYTSSFFIRDIIKPDPPKNLQLKPLKNSRQVEVSWEYPDTWSTPHSYFSLTFCVQVQGKSKREKKDRVFTDKTSATVICRKNASISVRAQDRYYSSSWSEWASVPCSGGGGSGGGGSGGGGSGGGGSGRNLPVATPDPGMFPCLHHSQNLLRAVSNMLQKARQTLEFYPCTSEEIDHEDITKDKTSTVEACLPLELTKNESCLNSRETSFITNGSCLASRKTSFMMALCLSSIYEDLKMYQVEFKTMNAKLLMDPKRQIFLDQNMLAVIDELMQALNFNSETVPQKSSLEEPDFYKTKIKLCILLHAFRIRAVTIDRVMSYLNASDKTHTCPPCPAPEDEGGPSVFLFPPKPKDTLMISRTPEVTCVVVDVSHEDPEVKFNWYVDGVEVHNAKTKPREEQYNSTYRVVSVLTVLHQDWLNGKEYKCKVSNKALPAPIEKTISKAKGQPREPQVYVYPPSREEMTKNQVSLTCLVKGFYPSDIAVEWESNGQPENNYKTTPPVLDEDGSFALVSKLTVDKSRWQQGNVFSCSVMHEALHNHYTQKSLSLSPGK heavy 2: QVQLQQSGPEVVKPGASVKMSCKASGYTFTSYVIHWVRQKPGQGLDWIGYINPYNDGTDYDEKFKGKATLTSDTSTSTAYMELSSLRSEDTAVYYCAREKDNYATGAWFAYWGQGTLVTVSSASTKGPSVFPLAPSSKSTSGGTAALGCLVKDYFPEPVTVSWNSGALTSGVHTFPAVLQSSGLYSLSSVVTVPSSSLGTQTYICNVNHKPSNTKVDKKVEPKSCDKTHTCPPCPAPEKKGGPSVFLFPPKPKDTLMISRTPEVTCVVVDVSHEDPEVKFNWYVDGVEVHNAKTKPREEQYNSTYRVVSVLTVLHQDWLNGKEYKCKVSNKALPAPIEKTISKAKGQPREPQVYVLPPSREEMTKNQVSLLCLVKGFYPSDIAVEWESNGQPENRYMTWPPVLDSDGSFFLYSKLTVDKSRWQQGNVFSCSVMHEALHNHYTQKSLSLSPGK light: not shown
